Assay [1] has as its target T1, full-length human Tau (htau40, 441 residues, 2N4R) (human, UniProt P10636-8 1-441).
T1 construct: 15N-labelled for the NMR titrations; also called 2N4R Tau; source: E. coli BL21 (DE3), vector pNG2, purified (boiling, SP-Sepharose)
Kind of assay: NMR titration; 1H-15N spectra of 15N-labeled Tau (30-50 μM) with up to 5 equivalents of unlabeled partner, 5 °C, 50 mM sodium phosphate/10 mM NaCl/1 mM DTT pH 6.8. The following applies: both partners purified.

The next assay has as its target T2, human full-length Hsp90β (human, UniProt P08238 1-724).
T2 construct: Human Hsp90β (heat-shock protein 90 beta), full length, dimer; For NMR, Ile δ1 methyl-labelled in a deuterated background or unlabelled; nothing is said for Hsp90; also called heat-shock protein 90; Hsp90 dimer; source: E. coli BL21 (DE3) or Rosetta 2 (DE3), purified (Ni-NTA, SEC)
Kind of assay: paramagnetic NMR (pseudo-contact shifts); 80 μM Ile-labelled Hsp90 with 40 μM CLaNP-7-tagged FKBP51 mutant (Tm3+ against Lu3+), 25 °C, 50 mM sodium phosphate/300 mM NaCl pH 7.2 in D2O. The following applies: both partners purified.

Residue numbers refer to the chain shown, from its start. Names and notes keep the numbering of the source.

T2 sequence (P08238 whole entry): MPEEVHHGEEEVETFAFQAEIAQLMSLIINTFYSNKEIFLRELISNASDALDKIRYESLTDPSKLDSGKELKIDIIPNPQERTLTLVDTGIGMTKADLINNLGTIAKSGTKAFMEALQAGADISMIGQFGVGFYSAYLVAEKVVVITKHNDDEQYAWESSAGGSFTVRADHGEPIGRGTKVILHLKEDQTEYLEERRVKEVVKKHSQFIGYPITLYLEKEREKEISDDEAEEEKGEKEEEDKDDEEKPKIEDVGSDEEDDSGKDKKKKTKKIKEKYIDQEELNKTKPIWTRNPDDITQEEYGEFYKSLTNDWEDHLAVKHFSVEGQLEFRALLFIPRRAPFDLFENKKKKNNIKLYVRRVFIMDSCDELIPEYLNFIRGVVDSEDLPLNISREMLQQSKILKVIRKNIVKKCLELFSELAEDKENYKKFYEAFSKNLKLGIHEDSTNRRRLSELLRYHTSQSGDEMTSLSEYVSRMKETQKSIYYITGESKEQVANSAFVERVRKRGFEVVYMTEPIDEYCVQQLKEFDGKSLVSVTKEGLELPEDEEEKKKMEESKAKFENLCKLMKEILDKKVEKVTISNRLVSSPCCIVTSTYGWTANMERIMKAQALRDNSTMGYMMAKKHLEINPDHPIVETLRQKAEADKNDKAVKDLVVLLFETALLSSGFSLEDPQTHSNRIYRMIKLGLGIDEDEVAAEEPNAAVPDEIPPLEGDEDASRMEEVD
T1 sequence (P10636 other isoform, or with tags, fused parts or gaps): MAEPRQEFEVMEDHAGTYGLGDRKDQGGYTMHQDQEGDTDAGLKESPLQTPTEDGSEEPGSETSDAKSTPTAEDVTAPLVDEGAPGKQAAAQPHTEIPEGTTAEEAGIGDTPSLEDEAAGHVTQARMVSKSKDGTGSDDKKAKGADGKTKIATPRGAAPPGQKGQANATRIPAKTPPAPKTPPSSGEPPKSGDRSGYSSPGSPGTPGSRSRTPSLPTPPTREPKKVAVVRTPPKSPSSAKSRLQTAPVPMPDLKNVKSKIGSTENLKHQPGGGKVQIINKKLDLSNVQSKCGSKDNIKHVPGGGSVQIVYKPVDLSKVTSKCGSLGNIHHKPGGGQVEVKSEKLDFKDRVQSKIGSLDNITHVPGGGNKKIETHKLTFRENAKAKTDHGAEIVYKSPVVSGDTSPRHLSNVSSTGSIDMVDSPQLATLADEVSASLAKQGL

B1: full-length human FKBP51 (natural protein, UniProt Q13451 1-457, looked up)
chain: MTTDEGAKNNEESPTATVAEQGEDITSKKDRGVLKIVKRVGNGEETPMIGDKVYVHYKGKLSNGKKFDSSHDRNEPFVFSLGKGQVIKAWDIGVATMKKGEICHLLCKPEYAYGSAGSLPKIPSNATLFFEIELLDFKGEDLFEDGGIIRRTKRKGEGYSNPNEGATVEIHLEGRCGGRMFDCRDVAFTVGEGEDHDIPIGIDKALEKMQREEQCILYLGPRYGFGEAGKPKFGIEPNAELIYEVTLKSFEKAKESWEMDTKEKLEQAAIVKEKGTVYFKGGKYMQAVIQYGKIVSWLEMEYGLSEKESKASESFLLAAFLNLAMCYLKLREYTKAVECCDKALGLDSANEKGLYRRGEAQLLMNEFESAKGDFEKVLEVNPQNKAARLQISMCQKKAKEHNERDRRIYANMFKKFAEQDAKEEANKAMGKKTSEGVTNEKGTDSQAMEEEKPEGHV
notes: For NMR, Leu/Val or Ala/Met methyl-labelled or unlabelled; also called PPIase; source: E. coli BL21 (DE3) or Rosetta 2 (DE3), purified (Ni-NTA, HRV3C cut, SEC)
B1: the binding result in assay [1] is “binds”.

B2: CLaNP-7-tagged FKBP51 C176S/C183S/C215S/C339S/C394S/E110C (natural protein, human, UniProt Q13451 1-457, looked up)
chain: B1 chain with E110C, C176S, C183S, C215S, C339S, C394S
modifications: CLaNP-7 lanthanide tag (Tm3+ or Lu3+) attached to C107 and C110 (E110C) in FK1
notes: Human FKBP51, full length, with E110C and all cysteines other than C107 removed; also called FKBP51_(C176S/C183S/C215S/C339S/C394S/E110C)-CLaNP-7; source: E. coli, purified as the wild-type protein, tagged with CLaNP-7
On to B2, for which, in the assay with human full-length Hsp90β, the binding result is “binds”.
